Target: RSC chromatin remodeling complex with Sth1-3xFlag-HaloTag (S. cerevisiae) (UniProt P32597)
Experiment: two-colour single-molecule colocalisation on DNA (optical tweezers with confocal microscopy); RSC-JFX554 with ISW2-JFX650, or RSC-JFX554 with RSC-JFX650, diffusing on naked lambda DNA stretched to 5 pN; 10 mM Tris pH 7.4, 50 mM KCl, 3 mM MgCl2, 0.1 mg/ml BSA, Trolox; colocalisation threshold 0.31 um (RSC-RSC) and 0.29 um (RSC-ISW2); single exponential fits of dwell times

Row | Substance | half-life of long colocalisation with co-diffusion, on DNA [s]
1 | ISW2 chromatin remodeling complex with Isw2-3xFlag-HaloTag (from UniProt Q08773 1-1120) | 0.68
2 | RSC chromatin remodeling complex with Sth1-3xFlag-HaloTag (from UniProt P32597 1-1359) | 0.7

Reference: doi:10.1101/2023.06.13.544671
